Assay results: patent publication US20260234242A1 (HAINAN SIMCERE ZAIMING PHARMACEUTICAL, published 2026)
Where two headings read alike, the source gives them in different places.

Experiments:
[1] = target: T1, human CDH6 on tumor cells (OVCAR3 cells, PA-1 cells) (human, UniProt P55285 54-790); assay: FACS, OVCAR3 cells
T1 sequence: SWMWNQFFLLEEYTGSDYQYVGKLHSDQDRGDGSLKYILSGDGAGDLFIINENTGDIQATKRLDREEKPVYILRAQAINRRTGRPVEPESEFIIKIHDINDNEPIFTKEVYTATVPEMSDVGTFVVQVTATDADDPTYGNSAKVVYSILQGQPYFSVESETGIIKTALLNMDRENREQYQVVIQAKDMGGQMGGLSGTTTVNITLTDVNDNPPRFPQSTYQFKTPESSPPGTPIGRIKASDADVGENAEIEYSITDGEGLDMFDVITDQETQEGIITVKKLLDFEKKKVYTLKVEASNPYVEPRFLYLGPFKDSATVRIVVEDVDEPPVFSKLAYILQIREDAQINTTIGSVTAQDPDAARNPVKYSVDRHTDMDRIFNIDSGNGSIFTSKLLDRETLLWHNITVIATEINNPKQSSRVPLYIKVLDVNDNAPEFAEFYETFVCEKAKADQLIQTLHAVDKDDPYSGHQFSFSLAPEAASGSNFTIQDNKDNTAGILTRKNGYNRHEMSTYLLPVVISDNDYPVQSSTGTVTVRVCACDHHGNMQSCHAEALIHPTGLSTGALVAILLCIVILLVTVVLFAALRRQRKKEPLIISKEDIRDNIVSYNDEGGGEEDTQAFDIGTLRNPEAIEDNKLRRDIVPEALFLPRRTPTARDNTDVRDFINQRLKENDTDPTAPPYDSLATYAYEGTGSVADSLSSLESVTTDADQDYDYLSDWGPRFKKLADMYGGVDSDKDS
In short: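 OVCAR3 (high CDH6) and PA-1 (moderate CDH6) cells in PBS + 2% FBS were incubated with diluted chimeric antibodies for 1 h at 4° C, then with a further reagent for 1 h at 4° C. After washing, mean fluorescence intensity was read by flow cytometry and EC50 values came from curve fitting.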

[2] = target: T2, his-tagged human CDH6 extracellular region protein (hCDH6 ECD-his) (human, UniProt P55285 19-615); assay: ELISA, coated antigen
T2 construct: also called Human CDH6-his; hCDH6-his; not shown: his tag
T2 sequence: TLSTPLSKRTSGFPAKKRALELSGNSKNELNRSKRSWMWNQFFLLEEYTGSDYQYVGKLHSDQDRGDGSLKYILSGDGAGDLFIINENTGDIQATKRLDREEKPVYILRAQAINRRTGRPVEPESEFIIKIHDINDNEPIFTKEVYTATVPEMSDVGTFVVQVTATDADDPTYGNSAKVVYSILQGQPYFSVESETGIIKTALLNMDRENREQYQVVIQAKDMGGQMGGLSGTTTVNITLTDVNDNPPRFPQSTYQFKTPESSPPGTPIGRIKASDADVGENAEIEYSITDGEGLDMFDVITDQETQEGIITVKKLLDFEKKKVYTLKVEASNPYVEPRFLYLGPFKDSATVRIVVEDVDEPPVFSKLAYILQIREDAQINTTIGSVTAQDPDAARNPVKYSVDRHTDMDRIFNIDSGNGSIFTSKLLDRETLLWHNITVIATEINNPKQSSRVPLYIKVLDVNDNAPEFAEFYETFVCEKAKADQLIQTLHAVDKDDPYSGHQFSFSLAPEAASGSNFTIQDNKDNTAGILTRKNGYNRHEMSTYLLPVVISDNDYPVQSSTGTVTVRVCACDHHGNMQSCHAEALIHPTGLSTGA
In short: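 Plates coated overnight at 4 °C with his-tagged CDH6 ECD (human; also cyno and murine, residues 19-615) at 1 μg/mL. Chimeric antibody dilutions bound 2 h at 37 °C; TMB read-out at OD450 nm, EC50 from fitted curves.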

[3] = target: T2, his-tagged human CDH6 extracellular …; assay: SPR Biacore, antibody captured on Protein A
Experimental: The affinity of the antibody for the antigen was determined by a multi-cycle kinetic method using a BIAcore 8K instrument. In each cycle, the antibody to be tested was captured using a Protein A chip (purchased from GE, Cat. No. 29-1275-56), and then the antigen human CDH6 protein (hCDH6-his, conventionally synthesized) was injected. The association and dissociation processes of the antibody with the antigen protein were recorded, and finally, the chip was regenerated using Glycine pH 1.5, wherein the mobile phase was HBS-EP+ (10 mM HEPES, 150 mM NaCl, 3 mM EDTA, 0.05% surfactant P20, and 1 mM Ca), the flow rate was 30 μL/min, the association time was 240 s, the dissociation time was 300 s, the regeneration time was 30 s, the detection temperature was 25° C., and the antigen concentration was 31.25-1000 nM. The data were analyzed using Biacore 8K analysis software (version No. 2.0) based on the 1:1 binding model to fit the antibody-antigen binding kinetic parameters, including the association rate constant ka, the dissociation rate constant kd, and the equilibrium dissociation constant KD. The affinity values of the control antibody DS-H01L02 were undetectable. Antibodies not shown in the table had undetectable affinity values.
Four hCDH6-6 humanized antibodies with fewer back mutations were selected, and the affinity for human CDH6 protein was further confirmed using Biacore.

[4] = target: T1, human CDH6 on tumor cells (OVCAR3 …); assay: FACS, PA-1 cells
Experimental: OVCAR3 cells with high expression of CDH6 and PA-1 cells with moderate expression of CDH6 were used to detect the binding activity of the antibodies to the cells. […] The cells were washed once with PBS, counted, resuspended to 2×10⁶ cells/mL in an FACS buffer (PBS+2% FBS), and then added to a 96-well plate at 50 μL/well. The chimeric antibodies were diluted with FACS buffer (PBS+2% FBS) and added to the 96-well plate at 50 μL/well, and the plate was incubated at 4° C. for 1 h. […] The dilution was added to the 96-well plate at 50 μL/well, and the plate was incubated at 4° C. for 1 h. After the plates were centrifuged and washed 2 times with PBS, the cells were resuspended in an FACS buffer. The mean fluorescence intensity (MFI) was measured using FACS Canton II (BD). Analysis was performed by the GraphPad Prism software, data were fitted, and EC50 values were calculated. The chimeric antibodies tested had strong binding to both OVCAR3 cells and PA-1 cells.
According to the above sequences, heavy chain (HC) and light chain (LC) plasmids were constructed (the nucleic acid sequences encoding the VH and VL of the antibodies were recombined into an expression vector carrying a signal peptide (SEQ ID NO: 132, […]) and a heavy chain constant region/light chain constant region sequence to obtain recombinant plasmids expressing VH-CH1-Fc/VL-CL). According to the expression and purification methods in Example 2, the hCDH6-14 humanized antibodies were obtained, and the binding activity of the humanized antibodies was detected by ELISA and FACS (see 2.2 and 2.3 for the method).

[5] = target: T2, his-tagged human CDH6 extracellular …; assay: ELISA, coated antigen; remark: listed apart in the source
[6] = target: T1, human CDH6 on tumor cells (OVCAR3 …); assay: FACS, OVCAR3 cells, 4° C. arm of endocytosis assay
Experimental: OVCAR3 cells were cultured until a confluence of 90% was reached, the medium was removed by pipetting, the cells were washed once with PBS, and then treated with an enzyme-free cell dissociation solution (Versene, purchased from Gibco, Cat. No. 15040-066) and the cells were collected. The cells were washed once with PBS, counted, resuspended to 2×10⁶ cells/mL in an FACS buffer (PBS+2% FBS), and then added to two 96-well plates at 50 μL/well. The chimeric antibodies were diluted with FACS buffer (PBS+2% FBS) to 10 μg/mL and separately added to the two 96-well plates at 50 μL/well, and the plates were incubated at 4° C. for 1 h. After the cells were washed 3 times with PBS, the cells were resuspended in an FACS buffer. One 96-well plate was incubated at 4° C. for 1 h, and the other 96-well plate was incubated at 37° C. for 1 h. […] After the plates were centrifuged and washed 2 times with PBS, the cells were resuspended in an FACS buffer. The mean fluorescence intensity (MFI) was measured using FACS Canton II (BD). The chimeric antibodies tested all had good endocytic activity.
Some of the antibodies were selected for the endocytic activity assay, and the method for assaying the endocytic activity of the humanized antibodies in OVCAR3 cells was the same as that in 2.4. The humanized antibodies tested all had good endocytic activity.

B1: hCDH6-6-H2L1 (antibody, V domains shown)
VH: EVQLVQSGAEVKKPGASVKVSCKASGYTFTDYYMAWVRQAPGQGLEWMGYIFPNSGGTDYSQKFKGRVTLTVDKSTSTVYMELSSLRSEDTAVYYCARELGADYGDYYAMDHWGQGTTVTVSS
VL: DIQMTQSPSSLSASVGDRVTITCRASENIDSYLAWYQQKPGKSPKLLLYSATLLADGVPSRFSGSGSGTDYTLTISSLQPEDFATYYCQHYYRTPPTFGQGTKLEIK
notes: Humanized
EC50 [1]: 0.61 nM | Max MFI [1]: 14000 MFI | EC50 [2]: 0.032 nM | Max OD450 [2]: 2.01 OD450 | Kd [3]: 133 nM | koff [3]: 0.00616 s⁻¹ | kon [3]: 46200 M⁻¹ s⁻¹

B2: hCDH6-14-H6L3 (antibody, V domains shown)
VH: EVQLVQSGAEVKKPGASVKVSCKASGYTFTDNYINWVRQAPGQRLEWMGWIYPGTGNSYYNEKFKGRVTITVDTSASTAYMELSSLRSEDTAVYLCASSYGDSFDYWGQGTTVTVSS
VL: DIVMTQSPDSLAVSLGERATINCRASQDIRNYLNWYQQKPGQTPKLLISYTSRLHSGVPDRFSGSGSGTDFTLTISSLQAEDVAVYYCQQYSQLPWTFGGGTKVEIK
notes: Humanized
EC50 [4]: 0.25 nM | Max MFI [4]: 3890 MFI | EC50 [5]: 0.062 nM | Max OD450 [5]: 2.72 OD450 | MFI_4° C. [6]: 16100 MFI
